Results taken from the DeepSol protein solubility set.

experiment: soluble on expression in E. coli; label from the status in PepcDB or PDB records

Soluble on expression in E. coli, not soluble:
MGSDKIHHHHHHMIELKNVSMIFNPGTVNENQAISNISLKVREGDFITVIGSNGAGKSTLFNLIAGTITPSSGSIFLNDRNITREPEYKRARYIGRIFQNPLLGTASTMSLEDNMMITYKKGFKWLKRSLNHKMREYFRTELVQLKMGLEDRMKENLALFSGGQRQALTLLMMVLSRPDLILLDEHTAALDPKNAQIVLELTDKFIREYNLTAMMITHNMSHAIEYGNRLLMMDKGEIIFEAEGEEKRALTVEKLIDKFHQIRHTSFENDRTLLSDD
MGSDKIHHHHHHMIEYYNFNKSELEKHSRIPLIVKKNNEEIFISLALEMVELIKENNEKNEKTVIICPVGPVGQYPHFVRLVNQFKIDLSNVWFINMDEYLLEDLHWIDVVHPLSFRGFMQKNVYSQIHPTLIMSEEQRIFPDPLDIDSISNKIKELGKIDLCIGGIGLNGHIAFNEPDSTLTVQEFLKLGSRVLPISVETKVMNGLTVLKGAVEEVPNYCVTIGMSEIFQAKKIRLAVFRDWHHAVIRKTVCSKPDTGFPSTLMQIHTNCSIYLNESLAN
MGSDKIHHHHHHMIFYCALSIGRVFSATIKTCPNVHQVHHVVLTIEMSINMQNNEQTEYKTVRGLTRGLMLLNMLNKLDGGASVGLLAELSGLHRTTVRRLLETLQEEGYVRRSPSDDSFRLTIKVRQLSEGFRDEQWISALAAPLLGDLLREVVWPTDVSTLDVDAMVVRETTHRFSRLSFHRAMVGRRLPLLKTASGLTWLAFCPEQDRKELIEMLASRPGDDYQLAREPLKLEAILARARKEGYGQNYRGWDQEEKIASIAVPLRSEQRVIGCLNLVYMASAMTIEQAAEKHLPALQRVAKQIEEGVESQAILVAGRRSGMHLR
MGSDKIHHHHHHMIGIEQYQKIQEYKELGLAQTKTAKALGITYSSVSKYWNMSEEDYVREAEQEKYHMDNYRQYILEQLKICPQIRDTNVYLKLMEAFPDLQVKRATFYRYMKALREQHGYQHTSKRKISPREVSPPGYEAQADFGQYKLKDMYGRIVRVYFFCMVLSYSRMKFVCFSPDPFTTKTGIKVHNYAFQCVWQV
MGSDKIHHHHHHMIGLNCKPLYIENAENQLYNPTLNIKTTMTYLETAAQFYSEVAQTPQVGLCCVQSTPLQLPGLKIPLSMQEMNYGCGTTVHPTELGKQPTVLYVGVGGGLEALQFAYFSRRPGAVIAVDPVAAMREAAARNLEMALTDNPWFESSFVEIREGDAFNLPVADGSVDIVAQNCLFNIFEPEDLTRALKEAYRVLKCGGRLQMSDPIATSPIPAHLQQDERLRAMCLSGALTYEEYTQRIIDAGFGQIEIRARRPYRLLDSQTYNLETHLLLESLDSVSFKVPIPEDGACIFTGKTAIYAGCEDFFDDKAGHILQRGIPATVCDKTAAKLATVKPKEVIITDSTWHYNGGGCC
MGSDKIHHHHHHMIGVAEVVLDVRDLRIYYRTLYGYVKAVDGVSFDIKRGEILGIAGESGCGKSTLGNGLILLKPPMKYMGGEAILDGKNIMALSPKELRKVRYEKISIIPQYAMDAMNPTKKIKQIIDDLLHEHGESFERKKDVIEERLEIVNLGKKVLNMYPIELSGGMKQRMVMVISTLMNPDVLIADEITSALDVSSQRSVIQMLYEMREKEIMGSLAFITHDLSVLYQIADKVMVLYAGRVAEISPMEDIIQEPLHPYTKMLLSSLPKIGVRYSQTKLKGIPGYPPSLLNIGPGCRFRDRCPYAFEKCEQDPPVFDVDGRKVSCWLFERGDAN
MGSDKIHHHHHHMIHVAHHYEMRHPTADIQETSMSSAQEERLRFIDFRLMFLGDVSRQDLTDRFGISEPAATRDLTQYRERCAANMEYSHVQRAYLRNYNFAPLYDHESTEALAMIAHGHLALPRRERKPLLRCDLPIQLDSPDSMVVSTITRAINHQHVISIDYRSHSSGETRRQIVPFALVDNGLRWHIRAYDRRRLRFSDFVISRISNPTIEESVVLTHERWEHDIQWNRIVELELVPHPKRPHPETTLFEYGMVNGISRLRVRAAVAGYFLRRWNVDCSPDHCLEGNEYQLWLKNRETLYGVETLEIAPGYL
MGSDKIHHHHHHMIIAGAVPIKGMELIKGPVKLNKDTFEIKNKELPISMGTCALLGAAFKTLEYFGKEDELTFITAGDVGEGDGSLEIYEELHEINDDLTIIHYIKPKISEIIKVDFSKNVIGDAGGMYAGKAAGIGNKFHMFFPDVGELAFLADENSSHPAYVRGFISEIDDQEIPKLIKMAYTQKMPKNMVVKGSKDHIVNEGNIIETVEYPKFEAMECIGGTGDTLTGIASSLIACGFKTEKAGILGCKLNRKLGELVKPRPDTQIYEIIQKIPEALKEFDL
MGSDKIHHHHHHMIISVINLKGGSGKTTTAMALATAAARHNRNVSVLDTDPQGDATTWAGDAEDAGETLPFTVDSANIGKLKRLRKTMADDELVIIDCPPAGNVVDVACDVSDFVIVPATQGPFELSHALETAESLDAAGKPYALLLLKVENNKLAGNAVNLIRERGASVFDASVPKRVGMQKVIGHAFPSNLNGYEDVYSELEEVIA
MGSDKIHHHHHHMIKAIALLRRKQGLSREQFIAYYETRHAPLIRSLLPGIEDYRRNYVDRTGAFESGIAAIDFDSVTEMRFASRASYDAFLAQAADPEIARLIADDEENVFDRSATRMFVVDETPAALSPDTPSPVLIDELLAERAIRDGLARFARVLDAKAWDALGDVFAADLTFDYGLGEQVGLEALTVNMRRFLDVCGPSQHLIGSIMITVDPGLQSATSRAYVRARHQRAGNSGGPVFDSNGEYVDRWECRAEGWRIVRRDALWQTQSGEAAIIWDGSPAAG
MGSDKIHHHHHHMIKALYTSITGMNATQNALSVTSNNIANAQTVGYKKQKAMFDDLLYNNSIGAKGDDRYAGTNPKSIGNGVKMSGTVTDYTDGTITLTGGKTQAAMEGNGFFVVGDSKAGNMEFTRKGTFTISSDYYITNTEGQYVFAYPADPSTGNVDLSGIPGPLQVPMGSAIGGIRTSKGVVGGNIPADAKQITQELPVYDNAGNTWTMRVEFKQDGEHNYKYKVYMRNESKKETAFNEVNGAGGEVKFDAVGKPDPVNPEANIPFNGGTVKIDFSKLTNHPTEKTLAVTDVDGRAAATVKDCFIADGGYVMVKYSDGSMKAAGQLAVAMFPNEGGLMKTGNGNYTATNTTGILAMGVSGQNGAGKVRGSAQEGANVDLSVEFVDLMLYQRGFQGNAKVIKISDEVLNEVVNLIR
MGSDKIHHHHHHMIKDTVFFAPGVSGGSNASSLSSRHRRAAIILHEIYGINAHIQRAGHEWMTRGFDIYIPALFPHHTPFRYEQQEEAYRHFSANVGFDPAVVTTLLHDLRTQYETLIVVGYSVGATLAWLSAASGLCDGVVCYYGSRIRQYLHLAPLCPTLVIVARYEPAFDPLAMRQALEKRPRVQCKMYDARHGFCDADSATFDAALSHQVMDDVTAFIRDITCANTSPDFQL
MGSDKIHHHHHHMIKKIYFIMVVIGSILLSSCDSYLDIQPVGQVIPTTLTEYRALLTTAYGLKLIDKSVTEFRTDIAMVTDNSNSQNFYSEIEKWNDMSPKDGTREFGWAVYYSVIYYANAIIANKDNIKEGSQEDIDQLVGEAYLLRGYMHFILANLYGQPYTKEGAPETKSIPIKWDLDLEVVLPRNTVKEVYTAILSDIESARGLMHQKEWEAVYAYRFSTLSVDAMESRVRLYMGNWKEAYDAAERILVQKSTLEDLNDPEAKLPNNYTSAEMITAYEFFNDDVTSASILIPAFMEKYDANKDLRRNKYYSLSGDKYISKKSGKAEHNCTFRTGEIYLNAAEAAAQMNKLPEARTRLLQLMEKRYTPEGYAEKKKAVDAMNQADLIKEILEERALELAFEGHRWFDLRRTTRPRIEKVLNGQAYLLEQDDSRYTLRIPQSAIAANPGLLN
MGSDKIHHHHHHMIKLFIVACGYIIYKLGRYCKENEYYMASLLMLQYHKSLSAERQQILYTNFTYYKKLSEKKKLEFEKRVQHFLTNKSFIASDGFEITEQMKVMIAATAVQILFCRKAYYLSSFDFIELFEEVPVHVEVMRKKRIIQISWNEFKKGFDSLIDGYNPGLKIMAMALDLEHKFGEKSLFSQQTYKAFQKIYKQEAEKYILSGKSKYDHYNKVDRTEYFAVAVEYFFERPEHFNVNQPAMYLALSKLLRQDPLGMYTYKEKVFE
MGSDKIHHHHHHMIKRAVEIVRQRGVGVLIKKIPPYIYQQVWPYLPSAGYTYKNGIKSCERGRVLDQFLPKYITQYATHQPSYESQYIEAIRRHVTEGQDVVLVGGGEGISTVVAANQVQRTGEVTVFEGAAEEARKSQVVVEINEVSDRTTVHHTIVSEDVSLRSAASGAEVLPSAELPSCDVLAIDADGAEISILDGIVNHPAVLIVEHHAVADTSGLALEYQPDRVRDLITNLGYDIVDEMSDPAGAGGGRFEERIYVGKRLAVEPSDLM
MGSDKIHHHHHHMINSYLVQQIKGNFLYKPTLEQEKAVKFLADFLFSRQSDSVFLLKGYAGTGKTSLIGALVKTLDQLQQKCVLLAPTGRAAKVFSHYAQHPAYTIHKKIYRQRNFSNDLDNFSLDDNLHQHTLFIVDEASMIANDGLAGAVFGTGRLLDDLIQYVYAGTGCRLMLIGDTAQLPPVGEEESPALSADKLRGYGMEVYEAQLTEVVRQMHDSGILWNATELRRYISEENFLTLPSVRVEGFPDIRMVSGSELIEVINDCYGQAGMDETIVVCRSNKRANIYNKGIRNTILFREDELNSGDLLMVAKNNYFWTEGCKEIDFIANGDIAVVRRVRRVREAYGFRFADVVLAFPDYDGMELEVKLLLDTLHTETPALPKELNDKLFYSVLEDYADITVKRERMKKMKADPHYNALQVKYAYAVTCHKAQGGQWKRVFLDQGYMTEDMLTPDYFRWLYTAFTRATEILYLVNWPKEQTE
MGSDKIHHHHHHMIPSQHFQSTPTVQFDLLTYMIGSYHYNWHPQIELLWLLQGTVEVNVDGTRHQLHANDLILINANRGHATFALTPECIALRLHILPDFYTNQGIDLSSGAFLLNSVTTPQHRDYQTIRQILAQLYLGLHQQDWPIFDLNALYFQLTNLLHHDFFDTGITMTYPQPKTQSSLNRVIDYINQAYDRPITLNEAAKISHYSPAYLSRIFKAELGLNFYEYLTRCRLQHAIYDLENPTTRVADLALANGFQEVKSFNLMFKKHFGQTPSSYRQHLSHGQRPEYDQFKQPLTPTQTTIVQKQLNHWAQLTSTDQLSACESCMYKLHFQEYQALKQKIAQLKTLLNQ
MGSDKIHHHHHHMIPWVISPYSFDGSVVRFEKLALLLKRKGLKSVILADRNFHAAVKFNTIMRKHGLIPVHGLWKDGRIFVARNREEFDSLVRYYNGETHEIEDIPVFQESELTPVRYLDASEKKASIFMRKIFGLDEDVQGFPEKCEDVADILNAEAYDLRVNHRFPTPPKNWNELLIKKAEPLGEEYISRLKRELEVIKRKGFTPYIYTVEKVVEIAKKMGIKVGPGRGSAVGSLVAYLCGITEVDPIKYDLLFERFLNEERQEPPDIDVDVEDRRRKDLIKELSKSFQVYQVSTFGNLTEKSLKNLINSVLPDASLEEKNEIYKTVYGLPHHPSVHAAGVVISENPLPLPTRTEEDIPITDYDMYDLQEIGVVKIDILGLKTLSFIKDFKKEIFDYSDEKTYHLISKGKTLGVFQLEGLQARKLCRRISPRNMDELSILLALNRPGPLRSGLDVMFSNSKNVPAFFRKMFPETRGVLIYQEQIMRLAMFAGLSGTEADILRRAIAKKEREKMEPLLEKMKKGLLEKGMENAEQILEILLNFSSYAFNKSHSVAYAHITYQTAYLKAHHLEEFFKLYFAYNSSDAGKIFLAVQELRNEGYRVHPPDINISGKDLVFHGKDVYLPLTVVKGVGVTLVEQIEKIRPVSSVRELQERVTGVPRNVVESLITAGAFDKLYENRKLALEELNKRVEKDILEIRSLFGEKVEQESSNIKIGDITELEEKSMGFPLTPVHEVPTGLFARIDDVFTYGRILPVLVKRVSRNIVTDGLSVCRVRTDVPDGVHLVLLSPLQKIIKIWPFNENTRFVYRVDFTATLEKAGQNEITEVLKNGAVVRYEGYRPLTDEYRYRVVPR
